{"source": "IntAct's records for PubMed 10444103", "key": {"mad14_orysj MADS14 [1]": {"target": "mad14_orysj MADS14 (UniProt Q10CQ1)", "sequence (Q10CQ1 whole entry)": "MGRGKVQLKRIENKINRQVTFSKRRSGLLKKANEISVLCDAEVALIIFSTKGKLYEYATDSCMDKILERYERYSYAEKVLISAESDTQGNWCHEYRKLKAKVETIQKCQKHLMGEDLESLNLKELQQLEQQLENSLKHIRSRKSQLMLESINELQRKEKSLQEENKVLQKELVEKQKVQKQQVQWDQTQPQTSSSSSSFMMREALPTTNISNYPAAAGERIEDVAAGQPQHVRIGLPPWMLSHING"}, "mad14_orysj MADS14 [2]": {"target": "mad14_orysj MADS14 (UniProt Q10CQ1)", "remark": "listed apart in the source"}}, "data": [{"substance": "MADS-box transcription factor 6 (Oryza sativa subsp. japonica (Rice)), Q6EU39 L126R;L134R", "values": [{"measurement": "effect of a mutation on the interaction", "setting": "mad14_orysj MADS14 [1]", "result": "disrupting interaction strength"}, {"measurement": "effect of a mutation on the interaction", "setting": "mad14_orysj MADS14 [2]", "result": "disrupting interaction strength"}]}, {"substance": "MADS-box transcription factor 6 (Oryza sativa subsp. japonica (Rice)), Q6EU39 L110R;L118R;L159R;L166R", "values": [{"measurement": "effect of a mutation on the interaction", "setting": "mad14_orysj MADS14 [1]", "result": "disrupting interaction strength"}, {"measurement": "effect of a mutation on the interaction", "setting": "mad14_orysj MADS14 [2]", "result": "disrupting interaction strength"}]}, {"substance": "MADS-box transcription factor 6 (Oryza sativa subsp. japonica (Rice)), Q6EU39 L110S;L118R", "values": [{"measurement": "effect of a mutation on the interaction", "setting": "mad14_orysj MADS14 [1]", "result": "decreasing interaction strength"}]}, {"substance": "MADS-box transcription factor 6 (Oryza sativa subsp. japonica (Rice)), Q6EU39 L110R;L118R", "values": [{"measurement": "effect of a mutation on the interaction", "setting": "mad14_orysj MADS14 [2]", "result": "decreasing interaction strength"}]}, {"substance": "MADS-box transcription factor 6 (Oryza sativa subsp. japonica (Rice)), Q6EU39 L159R;L166R", "values": [{"measurement": "effect of a mutation on the interaction", "setting": "mad14_orysj MADS14 [2]", "result": "disrupting interaction strength"}]}]}
